Assay results published in PMC5438564.

Columns and labels:
Fyn [1] = molecular target: Fyn (UniProt P39688); experiment: proximity ligation assay (PLA), Fyn3 + Tau1 antibodies (tau unphosphorylated at S198/S199/S202); settings: transfected Mapt-/- neurons; n = 16-31 neurons per construct from two experiments; parent: est. 1.0; read off a plot
Fyn [2] = molecular target: Fyn (UniProt P39688); experiment: proximity ligation assay (PLA), Fyn3 + Tau5 antibodies (total tau); settings: transfected Mapt-/- neurons; n = 16-31 neurons per construct from two experiments; parent: est. 1.0; read off a plot

ratio to parent (Fyn [1]) | ratio to parent (Fyn [2]) | Substance
1.1 | 0.41 | wildtype 0N4R mouse tau (mTau^WT) P216A; P219A
0.2 | 0.2 | wildtype 0N4R mouse tau (mTau^WT) P233A; P236A
1.7 | 0.3 | wildtype 0N4R mouse tau (mTau^WT) Y18F
